In article PMC10786891, “Massively parallel profiling of RNA-targeting CRISPR-Cas13d”:

T1: EsCas13d, nuclease-dead (Eubacterium siraeum, UniProt B0MS50, R295A;H300A;R849A;H854A)
T1 sequence: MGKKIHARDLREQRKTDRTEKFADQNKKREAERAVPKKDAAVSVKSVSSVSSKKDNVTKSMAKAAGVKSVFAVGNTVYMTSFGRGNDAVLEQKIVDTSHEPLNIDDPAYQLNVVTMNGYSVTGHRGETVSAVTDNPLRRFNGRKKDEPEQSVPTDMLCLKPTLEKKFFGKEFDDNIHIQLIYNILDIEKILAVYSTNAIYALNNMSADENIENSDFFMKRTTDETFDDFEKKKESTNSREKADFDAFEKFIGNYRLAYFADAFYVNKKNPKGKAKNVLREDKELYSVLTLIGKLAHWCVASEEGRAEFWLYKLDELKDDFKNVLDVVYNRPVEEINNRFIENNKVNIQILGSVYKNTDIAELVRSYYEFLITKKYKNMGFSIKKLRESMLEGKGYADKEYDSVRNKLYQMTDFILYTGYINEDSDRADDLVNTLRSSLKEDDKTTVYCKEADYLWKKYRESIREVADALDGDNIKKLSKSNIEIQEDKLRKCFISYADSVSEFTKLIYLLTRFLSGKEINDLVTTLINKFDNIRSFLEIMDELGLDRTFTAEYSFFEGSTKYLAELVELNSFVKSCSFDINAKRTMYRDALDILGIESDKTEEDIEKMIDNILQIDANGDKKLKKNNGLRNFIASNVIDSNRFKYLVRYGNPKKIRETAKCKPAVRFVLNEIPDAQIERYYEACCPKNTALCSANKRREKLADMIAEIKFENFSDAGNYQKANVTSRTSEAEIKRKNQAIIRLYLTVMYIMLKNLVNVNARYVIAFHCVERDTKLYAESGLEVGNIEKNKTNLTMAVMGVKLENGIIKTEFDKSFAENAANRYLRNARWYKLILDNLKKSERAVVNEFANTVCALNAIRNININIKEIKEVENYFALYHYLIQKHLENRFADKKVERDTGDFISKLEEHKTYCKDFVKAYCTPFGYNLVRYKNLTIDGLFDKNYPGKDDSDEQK

B1: target 1 U8G,C22U (mixed)
RNA 1: CACCCGUGCAAAAAUGCAGGGGUCUAAAACUGAGCGGAUAACCUCUCUAUGG
RNA 2: GGGAAUGGAUCCACAUCUACGAAUUCGUAUCAUAGAGAGGUUAGCCGCUCACCGAGAUCGGAAGAGCACACGU
B2: target 1 insG 3' of 4,insG 3' of 3 (mixed)
RNA 1: CACCCGUGCAAAAAUGCAGGGGUCUAAAACUGAGCGGAUAACCUCUCUAUGG
RNA 2: GGGAAUGGAUCCACAUCUACGAAUUCGUACCAUAGAGAGGUUAUCCGCGUGCACCGAGAUCGGAAGAGCACACGU
B3: target 1 insG 3' of 16,insC 3' of 14 (mixed)
RNA 1: CACCCGUGCAAAAAUGCAGGGGUCUAAAACUGAGCGGAUAACCUCUCUAUGG
RNA 2: GGGAAUGGAUCCACAUCUACGAAUUCGUACCAUAGAGGACGGUUAUCCGCUCACCGAGAUCGGAAGAGCACACGU
B4: target 1 insC 3' of 22,insC 3' of 15 (mixed)
RNA 1: CACCCGUGCAAAAAUGCAGGGGUCUAAAACUGAGCGGAUAACCUCUCUAUGG
RNA 2: GGGAAUGGAUCCACAUCUACGAAUUCGUACCCAUAGAGCAGGUUAUCCGCUCACCGAGAUCGGAAGAGCACACGU
B5: target 1 insC 3' of 20,insG 3' of 4 (mixed)
RNA 1: CACCCGUGCAAAAAUGCAGGGGUCUAAAACUGAGCGGAUAACCUCUCUAUGG
RNA 2: GGGAAUGGAUCCACAUCUACGAAUUCGUACCACUAGAGAGGUUAUCCGCGUCACCGAGAUCGGAAGAGCACACGU
B6: target 1 G15A,U19C (mixed)
RNA 1: CACCCGUGCAAAAAUGCAGGGGUCUAAAACUGAGCGGAUAACCUCUCUAUGG
RNA 2: GGGAAUGGAUCCACAUCUACGAAUUCGUACCACAGAAAGGUUAUCCGCUCACCGAGAUCGGAAGAGCACACGU
B7: target 1 insG 3' of 18,insG 3' of 14 (mixed)
RNA 1: CACCCGUGCAAAAAUGCAGGGGUCUAAAACUGAGCGGAUAACCUCUCUAUGG
RNA 2: GGGAAUGGAUCCACAUCUACGAAUUCGUACCAUAGGAGAGGGUUAUCCGCUCACCGAGAUCGGAAGAGCACACGU
B8: target 1 insU 3' of 7,insA 3' of 2 (mixed)
RNA 1: CACCCGUGCAAAAAUGCAGGGGUCUAAAACUGAGCGGAUAACCUCUCUAUGG
RNA 2: GGGAAUGGAUCCACAUCUACGAAUUCGUACCAUAGAGAGGUUAUCUCGCUCAACCGAGAUCGGAAGAGCACACGU
B9: target 1 insU 3' of 20,insG 3' of 16 (mixed)
RNA 1: CACCCGUGCAAAAAUGCAGGGGUCUAAAACUGAGCGGAUAACCUCUCUAUGG
RNA 2: GGGAAUGGAUCCACAUCUACGAAUUCGUACCAUUAGAGGAGGUUAUCCGCUCACCGAGAUCGGAAGAGCACACGU
B10: target 1 del9,del22 (mixed)
RNA 1: CACCCGUGCAAAAAUGCAGGGGUCUAAAACUGAGCGGAUAACCUCUCUAUGG
RNA 2: GGGAAUGGAUCCACAUCUACGAAUUCGUACAUAGAGAGGUUUCCGCUCACCGAGAUCGGAAGAGCACACGU
B11: target 1 insU 3' of 17,insA 3' of 10 (mixed)
RNA 1: CACCCGUGCAAAAAUGCAGGGGUCUAAAACUGAGCGGAUAACCUCUCUAUGG
RNA 2: GGGAAUGGAUCCACAUCUACGAAUUCGUACCAUAGUAGAGGUUAAUCCGCUCACCGAGAUCGGAAGAGCACACGU
B12: target 1 U11C,G13U (mixed)
RNA 1: CACCCGUGCAAAAAUGCAGGGGUCUAAAACUGAGCGGAUAACCUCUCUAUGG
RNA 2: GGGAAUGGAUCCACAUCUACGAAUUCGUACCAUAGAGAUGCUAUCCGCUCACCGAGAUCGGAAGAGCACACGU
B13: target 1 insC 3' of 17,insG 3' of 4 (mixed)
RNA 1: CACCCGUGCAAAAAUGCAGGGGUCUAAAACUGAGCGGAUAACCUCUCUAUGG
RNA 2: GGGAAUGGAUCCACAUCUACGAAUUCGUACCAUAGCAGAGGUUAUCCGCGUCACCGAGAUCGGAAGAGCACACGU
B14: target 1 G5U,C6U (mixed)
RNA 1: CACCCGUGCAAAAAUGCAGGGGUCUAAAACUGAGCGGAUAACCUCUCUAUGG
RNA 2: GGGAAUGGAUCCACAUCUACGAAUUCGUACCAUAGAGAGGUUAUCUUCUCACCGAGAUCGGAAGAGCACACGU
B15: target 1 insC 3' of 13,insA 3' of 3 (mixed)
RNA 1: CACCCGUGCAAAAAUGCAGGGGUCUAAAACUGAGCGGAUAACCUCUCUAUGG
RNA 2: GGGAAUGGAUCCACAUCUACGAAUUCGUACCAUAGAGAGCGUUAUCCGCUACACCGAGAUCGGAAGAGCACACGU
B16: target 1 C4A,U8C (mixed)
RNA 1: CACCCGUGCAAAAAUGCAGGGGUCUAAAACUGAGCGGAUAACCUCUCUAUGG
RNA 2: GGGAAUGGAUCCACAUCUACGAAUUCGUACCAUAGAGAGGUUACCCGAUCACCGAGAUCGGAAGAGCACACGU
B17: target 1 insG 3' of 16,insG 3' of 11 (mixed)
RNA 1: CACCCGUGCAAAAAUGCAGGGGUCUAAAACUGAGCGGAUAACCUCUCUAUGG
RNA 2: GGGAAUGGAUCCACAUCUACGAAUUCGUACCAUAGAGGAGGUGUAUCCGCUCACCGAGAUCGGAAGAGCACACGU
B18: target 1 insA 3' of 21,insU 3' of 9 (mixed)
RNA 1: CACCCGUGCAAAAAUGCAGGGGUCUAAAACUGAGCGGAUAACCUCUCUAUGG
RNA 2: GGGAAUGGAUCCACAUCUACGAAUUCGUACCAAUAGAGAGGUUAUUCCGCUCACCGAGAUCGGAAGAGCACACGU
B19: target 1 insC 3' of 11 (mixed)
RNA 1: CACCCGUGCAAAAAUGCAGGGGUCUAAAACUGAGCGGAUAACCUCUCUAUGG
RNA 2: GGGAAUGGAUCCACAUCUACGAAUUCGUACCAUAGAGAGGUCUAUCCGCUCACCGAGAUCGGAAGAGCACACGU
B20: target 1 insA 3' of 8,insU 3' of 4 (mixed)
RNA 1: CACCCGUGCAAAAAUGCAGGGGUCUAAAACUGAGCGGAUAACCUCUCUAUGG
RNA 2: GGGAAUGGAUCCACAUCUACGAAUUCGUACCAUAGAGAGGUUAUACCGCUUCACCGAGAUCGGAAGAGCACACGU
B21: target 1 insC 3' of 12,insG 3' of 10 (mixed)
RNA 1: CACCCGUGCAAAAAUGCAGGGGUCUAAAACUGAGCGGAUAACCUCUCUAUGG
RNA 2: GGGAAUGGAUCCACAUCUACGAAUUCGUACCAUAGAGAGGCUUGAUCCGCUCACCGAGAUCGGAAGAGCACACGU
B22: target 1 complement block 10-12 (mixed)
RNA 1: CACCCGUGCAAAAAUGCAGGGGUCUAAAACUGAGCGGAUAACCUCUCUAUGG
RNA 2: GGGAAUGGAUCCACAUCUACGAAUUCGUACCAUAGAGAGCAAAUCCGCUCACCGAGAUCGGAAGAGCACACGU
B23: target 1 C2G,U19C (mixed)
RNA 1: CACCCGUGCAAAAAUGCAGGGGUCUAAAACUGAGCGGAUAACCUCUCUAUGG
RNA 2: GGGAAUGGAUCCACAUCUACGAAUUCGUACCACAGAGAGGUUAUCCGCUGACCGAGAUCGGAAGAGCACACGU
B24: target 1 insA 3' of 10,insC 3' of 5 (mixed)
RNA 1: CACCCGUGCAAAAAUGCAGGGGUCUAAAACUGAGCGGAUAACCUCUCUAUGG
RNA 2: GGGAAUGGAUCCACAUCUACGAAUUCGUACCAUAGAGAGGUUAAUCCGCCUCACCGAGAUCGGAAGAGCACACGU

What follows are binders tested against T1, EsCas13d, nuclease-dead (assay: crRNA (strand 1, pre-loaded); Mg2+; 40 mM Tris-HCl pH 7.5, 150 mM NaCl, 6 mM MgCl2, 1 mM DTT, 0.1% Tween-20, 0.2 mg/ml BSA; 25 C; 10 min per concentration, then washed). Settings: tags: His6-TwinStrep-SUMO cleaved; N-terminal SNAP kept (SNAP-Surface 488); label: 3' end held by stalled T7 RNA polymerase.
Work on B1 yielded a Kd of 29.7 ± 2.6 nM. B2 was tested, and the Kd was 8.2 ± 0.35 nM. With B3 the Kd was 38 ± 5 nM. B4 showed a Kd of 40 ± 7 nM. In the case of B5, the Kd is reported as 11.4 ± 0.9 nM. Binder B6 has a Kd of 61 ± 20 nM. For B7, the Kd was 63 ± 5 nM. With B8 the Kd was 18.7 ± 1.5 nM. B9 was tested, and the Kd was 36 ± 4 nM. B10 gave a Kd of 69 ± 9 nM. B11 was tested, and the Kd was 25.2 ± 3.4 nM. Work on B12 yielded a Kd of 60 ± 10 nM. B13 gave a Kd of 30.9 ± 2.4 nM. For B14, the Kd was 48 ± 4 nM. Work on B15 yielded a Kd of 6.88 ± 0.2 nM. In the case of B16, the Kd is reported as 5.2 ± 0.6 nM. Work on B17 yielded a Kd of 50 ± 5 nM. B18 gave a Kd of 24.4 ± 2.1 nM. In the case of B19, the Kd is reported as 29.8 ± 3.1 nM. With B20 the Kd was 12.3 ± 0.7 nM. With B21 the Kd was 12.3 ± 0.5 nM. With B22 the Kd was 6.8 ± 0.4 nM. In the case of B23, the Kd is reported as 18.5 ± 1 nM. For B24, the Kd was 10.1 ± 0.5 nM.
